{
  "source": "patent US20260115255A1",
  "about": "(CYTUNE PHARMA, published 2026)",
  "key": {"FcγRIIIa V158": {"molecular_target": "T1, FcγRIIIa V158 (human, UniProt P08637 17-208)", "T1 construct": "Captured on the chip through an anti-His tag antibody, so it carries a His tag; construct not described; also called hFcγRIIIaV158; FcγIIIa V158", "assay": "SPR; ratio of affinity (1/Kd) for FcγRIIIa V158 to affinity for FcγRIIb", "protocol": "(§1) SPR experiments were performed on a Biacore 8K (Cytiva, Chicago, IL, USA), using CM5 sensor chips (Cytiva) with an immobilization using THE His tag antibodies (Genscript). FcγRIIIa V158, FcγRIIIa F158 or FcγRIIb protein were used for capture with a contact time of 30 sec at a flow rate of […] in a 1×HBS-EP+ running buffer. Association/dissociation rates were measured for each tested immunocytokine at a flow rate of 30 μl/min with concentration serial dilution in a suitable range with an association time/dissociation time of 300 s/300 s except for constructs with DLE and DE with and without afucosylation, where association/dissociation time of 120 s/1200 s was applied."}, "FcγRIIIa F158": {"molecular_target": "T2, FcγRIIIa F158 (human, UniProt P08637 17-208)", "T2 construct": "Captured on the chip through an anti-His tag antibody; construct not described; also called hFcγRIIIaF158; CD16a F158", "assay": "SPR; ratio of affinity (1/Kd) for FcγRIIIa F158 to affinity for FcγRIIb", "protocol": "as §1"}},
  "data": [
    {"binder": "hCl1a (antibody) chain 1: not shown chain 2: DIQMTQSPSSLSASVGDRVTITCRASEDIYSNLAWYQQKPGKAPKLLIFSVKRLQDGVPSRFSGSGSGTDFTLTISSLQPEDFATYYCLQGSNFPLTFGQGTKVEIKRTVAAPSVFIFPPSDEQLKSGTASVVCLLNNFYPREAKVQWKVDNALQSGNSQESVTEQDSKDSTYSLSSTLTLSKADYEKHKVYACEVTHQGLSSPVTKSFNRGEC", "values": [
      {"measurement": "A/I (V158)", "setting": "FcγRIIIa V158", "value": 83.8},
      {"measurement": "A/I (F158)", "setting": "FcγRIIIa F158", "value": 20.6}
    ]},
    {"binder": "hCl1a DLE-RLI DANA (other, also called SOT202-DLE-DANA; copies: 1 + 1 + 2) heavy 1: QVQLVQSGAEVKKPGASVKVSCKASGYTFTDYAMHWVRQAPGQRLEWMGWINTYTGKPTYAQKFQGRVTITRDTSASTAYMELSSLRSEDTAVYYCARAVFYGYTMDAWGQGTLVTVSSASTKGPSVFPLAPSSKSTSGGTAALGCLVKDYFPEPVTVSWNSGALTSGVHTFPAVLQSSGLYSLSSVVTVPSSSLGTQTYICNVNHKPSNTKVDKKVEPKSCDKTHTCPPCPAPELLGGPDVFLFPPKPKDTLMISRTPEVTCVVVDVSHEDPEVKFNWYVDGVEVHNAKTKPREEQYNSTYRVVSVLTVLHQDWLNGKEYKCKVSNKALPLPEEKTISKAKGQPREPQVYTLPPSRDELTKNQVSLWCLVKGFYPSDIAVEWESNGQPENNYKTTPPVLDSDGSFFLYSKLTVDKSRWQQGNVFSCSVMHEALHNHYTQKSLSLSPGITCPPPMSVEHADIWVKSYSLYSRERYICNSGFKRKAGTSSLTECVLNKATNVAHWTTPSLKCIRDPALVHQRPAPPSGGSGGGGSGGGSGGGGSGGNWVNVISDLKKIEDLIQSMHIDATLYTESDVHPSCKVTAMKCFLLELQVISLESGDASIHATVEALIILANNSLSSNAQVTESGCKECEELEEKNIKEFLQSFVHIVQMFINTS heavy 2: QVQLVQSGAEVKKPGASVKVSCKASGYTFTDYAMHWVRQAPGQRLEWMGWINTYTGKPTYAQKFQGRVTITRDTSASTAYMELSSLRSEDTAVYYCARAVFYGYTMDAWGQGTLVTVSSASTKGPSVFPLAPSSKSTSGGTAALGCLVKDYFPEPVTVSWNSGALTSGVHTFPAVLQSSGLYSLSSVVTVPSSSLGTQTYICNVNHKPSNTKVDKKVEPKSCDKTHTCPPCPAPELLGGPDVFLFPPKPKDTLMISRTPEVTCVVVDVSHEDPEVKFNWYVDGVEVHNAKTKPREEQYNSTYRVVSVLTVLHQDWLNGKEYKCKVSNKALPLPEEKTISKAKGQPREPQVYTLPPSRDELTKNQVSLSCAVKGFYPSDIAVEWESNGQPENNYKTTPPVLDSDGSFFLVSKLTVDKSRWQQGNVFSCSVMHEALHNHYTQKSLSLSPG light: DIQMTQSPSSLSASVGDRVTITCRASEDIYSNLAWYQQKPGKAPKLLIFSVKRLQDGVPSRFSGSGSGTDFTLTISSLQPEDFATYYCLQGSNFPLTFGQGTKVEIKRTVAAPSVFIFPPSDEQLKSGTASVVCLLNNFYPREAKVQWKVDNALQSGNSQESVTEQDSKDSTYSLSSTLTLSKADYEKHKVYACEVTHQGLSSPVTKSFNRGEC", "values": [
      {"measurement": "A/I (V158)", "setting": "FcγRIIIa V158", "value": 464},
      {"measurement": "A/I (F158)", "setting": "FcγRIIIa F158", "value": 228}
    ]},
    {"binder": "hCl1a DLE-RLI DANA afuc (other, Afucosylated Fc N-glycan (N297, both heavy chains); the letters cannot carry it., Same chains as m4, afucosylated; copies: 1 + 1 + 2) heavy 1: QVQLVQSGAEVKKPGASVKVSCKASGYTFTDYAMHWVRQAPGQRLEWMGWINTYTGKPTYAQKFQGRVTITRDTSASTAYMELSSLRSEDTAVYYCARAVFYGYTMDAWGQGTLVTVSSASTKGPSVFPLAPSSKSTSGGTAALGCLVKDYFPEPVTVSWNSGALTSGVHTFPAVLQSSGLYSLSSVVTVPSSSLGTQTYICNVNHKPSNTKVDKKVEPKSCDKTHTCPPCPAPELLGGPDVFLFPPKPKDTLMISRTPEVTCVVVDVSHEDPEVKFNWYVDGVEVHNAKTKPREEQYNSTYRVVSVLTVLHQDWLNGKEYKCKVSNKALPLPEEKTISKAKGQPREPQVYTLPPSRDELTKNQVSLWCLVKGFYPSDIAVEWESNGQPENNYKTTPPVLDSDGSFFLYSKLTVDKSRWQQGNVFSCSVMHEALHNHYTQKSLSLSPGITCPPPMSVEHADIWVKSYSLYSRERYICNSGFKRKAGTSSLTECVLNKATNVAHWTTPSLKCIRDPALVHQRPAPPSGGSGGGGSGGGSGGGGSGGNWVNVISDLKKIEDLIQSMHIDATLYTESDVHPSCKVTAMKCFLLELQVISLESGDASIHATVEALIILANNSLSSNAQVTESGCKECEELEEKNIKEFLQSFVHIVQMFINTS heavy 2: QVQLVQSGAEVKKPGASVKVSCKASGYTFTDYAMHWVRQAPGQRLEWMGWINTYTGKPTYAQKFQGRVTITRDTSASTAYMELSSLRSEDTAVYYCARAVFYGYTMDAWGQGTLVTVSSASTKGPSVFPLAPSSKSTSGGTAALGCLVKDYFPEPVTVSWNSGALTSGVHTFPAVLQSSGLYSLSSVVTVPSSSLGTQTYICNVNHKPSNTKVDKKVEPKSCDKTHTCPPCPAPELLGGPDVFLFPPKPKDTLMISRTPEVTCVVVDVSHEDPEVKFNWYVDGVEVHNAKTKPREEQYNSTYRVVSVLTVLHQDWLNGKEYKCKVSNKALPLPEEKTISKAKGQPREPQVYTLPPSRDELTKNQVSLSCAVKGFYPSDIAVEWESNGQPENNYKTTPPVLDSDGSFFLVSKLTVDKSRWQQGNVFSCSVMHEALHNHYTQKSLSLSPG light: DIQMTQSPSSLSASVGDRVTITCRASEDIYSNLAWYQQKPGKAPKLLIFSVKRLQDGVPSRFSGSGSGTDFTLTISSLQPEDFATYYCLQGSNFPLTFGQGTKVEIKRTVAAPSVFIFPPSDEQLKSGTASVVCLLNNFYPREAKVQWKVDNALQSGNSQESVTEQDSKDSTYSLSSTLTLSKADYEKHKVYACEVTHQGLSSPVTKSFNRGEC", "values": [
      {"measurement": "A/I (V158)", "setting": "FcγRIIIa V158", "value": 13700},
      {"measurement": "A/I (F158)", "setting": "FcγRIIIa F158", "value": 9370}
    ]},
    {"binder": "hCl1a AAA-RLI DANA afuc (other, Afucosylated Fc N-glycan (N297, both heavy chains); the letters cannot carry it., Same chains as m6, afucosylated; copies: 1 + 1 + 2) heavy 1: QVQLVQSGAEVKKPGASVKVSCKASGYTFTDYAMHWVRQAPGQRLEWMGWINTYTGKPTYAQKFQGRVTITRDTSASTAYMELSSLRSEDTAVYYCARAVFYGYTMDAWGQGTLVTVSSASTKGPSVFPLAPSSKSTSGGTAALGCLVKDYFPEPVTVSWNSGALTSGVHTFPAVLQSSGLYSLSSVVTVPSSSLGTQTYICNVNHKPSNTKVDKKVEPKSCDKTHTCPPCPAPELLGGPSVFLFPPKPKDTLMISRTPEVTCVVVDVSHEDPEVKFNWYVDGVEVHNAKTKPREEQYNATYRVVSVLTVLHQDWLNGKEYKCKVSNKALPAPIAATISKAKGQPREPQVYTLPPSRDELTKNQVSLWCLVKGFYPSDIAVEWESNGQPENNYKTTPPVLDSDGSFFLYSKLTVDKSRWQQGNVFSCSVMHEALHNHYTQKSLSLSPGITCPPPMSVEHADIWVKSYSLYSRERYICNSGFKRKAGTSSLTECVLNKATNVAHWTTPSLKCIRDPALVHQRPAPPSGGSGGGGSGGGSGGGGSGGNWVNVISDLKKIEDLIQSMHIDATLYTESDVHPSCKVTAMKCFLLELQVISLESGDASIHATVEALIILANNSLSSNAQVTESGCKECEELEEKNIKEFLQSFVHIVQMFINTS heavy 2: QVQLVQSGAEVKKPGASVKVSCKASGYTFTDYAMHWVRQAPGQRLEWMGWINTYTGKPTYAQKFQGRVTITRDTSASTAYMELSSLRSEDTAVYYCARAVFYGYTMDAWGQGTLVTVSSASTKGPSVFPLAPSSKSTSGGTAALGCLVKDYFPEPVTVSWNSGALTSGVHTFPAVLQSSGLYSLSSVVTVPSSSLGTQTYICNVNHKPSNTKVDKKVEPKSCDKTHTCPPCPAPELLGGPSVFLFPPKPKDTLMISRTPEVTCVVVDVSHEDPEVKFNWYVDGVEVHNAKTKPREEQYNATYRVVSVLTVLHQDWLNGKEYKCKVSNKALPAPIAATISKAKGQPREPQVYTLPPSRDELTKNQVSLSCAVKGFYPSDIAVEWESNGQPENNYKTTPPVLDSDGSFFLVSKLTVDKSRWQQGNVFSCSVMHEALHNHYTQKSLSLSPG light: DIQMTQSPSSLSASVGDRVTITCRASEDIYSNLAWYQQKPGKAPKLLIFSVKRLQDGVPSRFSGSGSGTDFTLTISSLQPEDFATYYCLQGSNFPLTFGQGTKVEIKRTVAAPSVFIFPPSDEQLKSGTASVVCLLNNFYPREAKVQWKVDNALQSGNSQESVTEQDSKDSTYSLSSTLTLSKADYEKHKVYACEVTHQGLSSPVTKSFNRGEC", "values": [
      {"measurement": "A/I (V158)", "setting": "FcγRIIIa V158", "value": 1010},
      {"measurement": "A/I (F158)", "setting": "FcγRIIIa F158", "value": 380}
    ]},
    {"binder": "hCl1a AAA-RLI DANA (other, See note of m4; also called SOT202-AAA-DANA; copies: 1 + 1 + 2) heavy 1: QVQLVQSGAEVKKPGASVKVSCKASGYTFTDYAMHWVRQAPGQRLEWMGWINTYTGKPTYAQKFQGRVTITRDTSASTAYMELSSLRSEDTAVYYCARAVFYGYTMDAWGQGTLVTVSSASTKGPSVFPLAPSSKSTSGGTAALGCLVKDYFPEPVTVSWNSGALTSGVHTFPAVLQSSGLYSLSSVVTVPSSSLGTQTYICNVNHKPSNTKVDKKVEPKSCDKTHTCPPCPAPELLGGPSVFLFPPKPKDTLMISRTPEVTCVVVDVSHEDPEVKFNWYVDGVEVHNAKTKPREEQYNATYRVVSVLTVLHQDWLNGKEYKCKVSNKALPAPIAATISKAKGQPREPQVYTLPPSRDELTKNQVSLWCLVKGFYPSDIAVEWESNGQPENNYKTTPPVLDSDGSFFLYSKLTVDKSRWQQGNVFSCSVMHEALHNHYTQKSLSLSPGITCPPPMSVEHADIWVKSYSLYSRERYICNSGFKRKAGTSSLTECVLNKATNVAHWTTPSLKCIRDPALVHQRPAPPSGGSGGGGSGGGSGGGGSGGNWVNVISDLKKIEDLIQSMHIDATLYTESDVHPSCKVTAMKCFLLELQVISLESGDASIHATVEALIILANNSLSSNAQVTESGCKECEELEEKNIKEFLQSFVHIVQMFINTS heavy 2: QVQLVQSGAEVKKPGASVKVSCKASGYTFTDYAMHWVRQAPGQRLEWMGWINTYTGKPTYAQKFQGRVTITRDTSASTAYMELSSLRSEDTAVYYCARAVFYGYTMDAWGQGTLVTVSSASTKGPSVFPLAPSSKSTSGGTAALGCLVKDYFPEPVTVSWNSGALTSGVHTFPAVLQSSGLYSLSSVVTVPSSSLGTQTYICNVNHKPSNTKVDKKVEPKSCDKTHTCPPCPAPELLGGPSVFLFPPKPKDTLMISRTPEVTCVVVDVSHEDPEVKFNWYVDGVEVHNAKTKPREEQYNATYRVVSVLTVLHQDWLNGKEYKCKVSNKALPAPIAATISKAKGQPREPQVYTLPPSRDELTKNQVSLSCAVKGFYPSDIAVEWESNGQPENNYKTTPPVLDSDGSFFLVSKLTVDKSRWQQGNVFSCSVMHEALHNHYTQKSLSLSPG light: DIQMTQSPSSLSASVGDRVTITCRASEDIYSNLAWYQQKPGKAPKLLIFSVKRLQDGVPSRFSGSGSGTDFTLTISSLQPEDFATYYCLQGSNFPLTFGQGTKVEIKRTVAAPSVFIFPPSDEQLKSGTASVVCLLNNFYPREAKVQWKVDNALQSGNSQESVTEQDSKDSTYSLSSTLTLSKADYEKHKVYACEVTHQGLSSPVTKSFNRGEC", "values": [
      {"measurement": "A/I (V158)", "setting": "FcγRIIIa V158", "value": 691},
      {"measurement": "A/I (F158)", "setting": "FcγRIIIa F158", "value": 244}
    ]}
  ]
}
